The supplement of paper PMC9732359
± gives the uncertainty stated by the source.

Experiment: protein stability index of a GFP-peptide fusion (yeast GPS) (PSI 1-4); higher = more stable; sorted into four equal gates, so the index is relative within each strain
Method in brief: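 Tiled 17-residue peptides from yeast proteins were fused downstream of GFP on a plasmid that also expresses Cherry, and the pooled library was carried in yeast. Mid-log cultures grown in leucine-free medium were sorted into four equal gates by GFP/Cherry fluorescence ratio. Plasmids from each gate were PCR-amplified and Illumina-sequenced, and reads were assigned to strains by barcodes. Each peptide's protein stability index is the sum, over gates, of the gate's read frequency multiplied by its gate number.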

| Sequence | protein stability index (doa10∆) | protein stability index (pdr5∆) | protein stability index (san1∆) | protein stability index (ubr1∆) |
| --- | --- | --- | --- | --- |
| LEELAETFQDTFSGALG [FAS2] | 2.95 ± 0.065 | 3.06 ± 0.077 | 3.21 ± 0.05 | 3.31 ± 0.067 |
| TGISQKSMSILNSFVND [HTB1] | 2.96 ± 0.06 | 2.94 ± 0.074 | 2.6 ± 0.075 | 2.67 ± 0.087 |
| FLHESSFDSIDHSWFLL [CSI1] | 2.67 ± 0.075 | 2.93 ± 0.061 | 2.48 ± 0.072 | 2.87 ± 0.044 |
| TPSTEESRAQNVFGQDN [SWI3] | 2.58 ± 0.092 | 2.77 ± 0.093 | 3.35 ± 0.054 | 2.55 ± 0.048 |
| YGEAPTSPGFGVSSPGF [RPO21] | 3.06 ± 0.14 | 3.45 ± 0.14 | 2.93 ± 0.17 | 3.17 ± 0.054 |
| VKTPKKTKYILQRPTAT [CSN12] | 2.89 ± 0.069 | 3.03 ± 0.076 | 2.6 ± 0.079 | 2.43 ± 0.21 |
| DEDESQNIAQSSNQSAP [HRT1] | 2.99 ± 0.07 | 3.15 ± 0.074 | 3.14 ± 0.051 | 3.19 ± 0.043 |
| HRLSILSHYAKIRPWRT [RPO31] | 2.81 ± 0.068 | 2.77 ± 0.066 | 2.85 ± 0.087 | 2.84 ± 0.052 |
| SPRNTYQCAMGKQAIGA [RET1] | 1.94 ± 0.14 | 2.57 ± 0.14 | 2.83 ± 0.15 |  |
| YYVGQVMRNNESTETGY [DIS3] | 3.21 ± 0.069 | 3.19 ± 0.092 | 3.18 ± 0.055 | 3.23 ± 0.064 |
| LSCEKITHYAVRGGNIE [RRI1] | 2.37 ± 0.062 | 2.3 ± 0.078 | 2.51 ± 0.08 | 2.19 ± 0.047 |
| AEEDSLLSGEDLTLDDI [YJL039C/NUP192] | 3.62 ± 0.13 | 3.4 ± 0.11 |  | 3.43 ± 0.13 |
| TKFNHNKEKSNSPTSFF [YOR098C/NUP1] | 2.78 ± 0.069 | 2.85 ± 0.066 | 2.66 ± 0.048 | 2.53 ± 0.051 |
| MLPGSSNGGGKVKPIRG [RPO31] | 3 ± 0.073 | 3.36 ± 0.13 | 3.15 ± 0.076 | 3.07 ± 0.068 |
| RVIIQELRFPSPTPIQR [PRP28] | 2.57 ± 0.15 | 2.58 ± 0.15 | 2.41 ± 0.14 |  |
| IVSEDHIILDTISECNL [MED1] | 2.87 ± 0.093 | 3.19 ± 0.081 | 3.2 ± 0.077 | 2.83 ± 0.12 |
| KIDSHVVLSFSGLNADS [PRE6] | 1.8 ± 0.062 | 1.72 ± 0.069 | 2.48 ± 0.073 | 2.19 ± 0.054 |
| KGEMKGSAITGPVGKEC [RPL23A] | 3.19 ± 0.065 | 2.98 ± 0.065 | 3 ± 0.051 | 3 ± 0.044 |
| DTNVVLQAIDLLENPNC [DIS3] | 2.84 ± 0.07 | 2.75 ± 0.063 | 2.63 ± 0.074 | 2.73 ± 0.046 |
| PDFKPWEHTAAEDQILA [SRB8] | 2.83 ± 0.12 | 2.95 ± 0.12 | 3.03 ± 0.075 | 3.02 ± 0.091 |
| TLLWNKNDKLIKIEDFV [SNF5] | 1.8 ± 0.081 | 1.74 ± 0.066 | 1.55 ± 0.095 | 1.83 ± 0.036 |
| NYNSTSRSTEKKNDMNT [SIR4] | 2.33 ± 0.061 | 2.48 ± 0.058 | 2.61 ± 0.079 | 2.55 ± 0.049 |
| KREESESAAVYNGRGAR [SNF2] | 3.09 ± 0.17 | 3.02 ± 0.091 | 3.35 ± 0.057 | 3.49 ± 0.085 |
| QAIKEASYVNIPVIALT [RPS0A] | 2.07 ± 0.068 | 2 ± 0.061 | 2.15 ± 0.12 | 1.78 ± 0.057 |
| NFLETIASTEKPENKTD [SIR4] | 2.94 ± 0.1 | 2.93 ± 0.089 | 2.77 ± 0.11 | 3.13 ± 0.092 |
| WDLQLQEKESQIQLAES [SMC4] | 3.05 ± 0.056 | 3.08 ± 0.076 | 2.82 ± 0.082 | 3.07 ± 0.06 |
| NWSKEDLQKLLKGIQEF [SWI3] | 3.27 ± 0.068 | 3.07 ± 0.057 | 3.09 ± 0.05 | 3.33 ± 0.055 |

| Sequence | protein stability index (doa10∆) | protein stability index (pdr5∆) | protein stability index (san1∆) | protein stability index (ubr1∆) |
| --- | --- | --- | --- | --- |
| LCLEKLMCLSSKYCEKS [YCS4] | 1.55 ± 0.051 | 2.34 ± 0.087 | 2.27 ± 0.18 | 1.92 ± 0.059 |
| SAKAELEKLVDHHPEGL [PRE10] | 2.84 ± 0.065 | 2.91 ± 0.055 | 2.55 ± 0.068 | 2.75 ± 0.048 |
| AIKKKEKLLRHVDSLIE [SRB7] | 3.15 ± 0.094 | 2.88 ± 0.12 | 3.2 ± 0.094 | 3.27 ± 0.1 |
| RSISWAPSIGRWYQLIA [YGL100W/SEH1] | 1.26 ± 0.072 | 1.15 ± 0.075 | 1.16 ± 0.12 | 1.11 ± 0.063 |
| RGIPRISTLFQRDRHTL [PRP8] | 2.57 ± 0.095 | 2.66 ± 0.16 | 2.08 ± 0.079 | 2.68 ± 0.085 |
| QLCQITCQILESGEDEA [RRP46] | 2.25 ± 0.19 | 1.98 ± 0.082 | 1.72 ± 0.09 | 1.99 ± 0.061 |
| ERKTLERQQENLLIQRL [SWI3] | 3.07 ± 0.09 | 3.28 ± 0.087 | 3.12 ± 0.078 | 3.09 ± 0.067 |
| MANKEWRVREASTSALL [ECM29] |  |  |  | 2.26 ± 0.2 |
| KLNIETMRKISSETDDD [DSN1] | 2.56 ± 0.074 | 2.27 ± 0.13 | 2.77 ± 0.12 |  |
| ASKKSGGDVVKFQKLLQ [SMC4] | 3.42 ± 0.15 | 3.64 ± 0.12 | 3.19 ± 0.13 | 3.4 ± 0.17 |
| KYIALQVIVDIFSVHGN [YCG1] | 1.26 ± 0.081 | 1.36 ± 0.14 | 1.14 ± 0.14 | 1.75 ± 0.16 |
| NKTLTLDLKECYQFAEY [ARP7] | 1.96 ± 0.089 | 2.3 ± 0.072 | 1.9 ± 0.17 | 2.69 ± 0.1 |
| DDNDVPGPLPDTDSKPS [YLR018C/POM34] | 2.9 ± 0.12 | 2.98 ± 0.084 | 2.76 ± 0.11 | 2.38 ± 0.13 |
| NNFRESDIIILKGEIED [SIR4] | 3.05 ± 0.18 | 2.12 ± 0.091 | 2.32 ± 0.13 | 2.93 ± 0.13 |
| TLVGGGAKITPEMIKRS [RRP43] |  | 3.29 ± 0.29 | 2.74 ± 0.22 |  |
| PVLSTIAFLVGLVNPKT [SWI3] | 2.98 ± 0.085 | 2.52 ± 0.058 | 2.33 ± 0.066 | 2.86 ± 0.042 |
| RSDGMGNVLLNATVVDS [YLR335W/NUP2] | 3.44 ± 0.15 | 3.15 ± 0.099 | 3.29 ± 0.099 | 3.15 ± 0.093 |
| NRLSNPQKNLLLKGPAS [YOR098C/NUP1] | 2.96 ± 0.049 | 3.05 ± 0.038 | 2.68 ± 0.054 | 2.94 ± 0.056 |
| HENYIQDDDFPLDDAGT [MCD1] | 2.95 ± 0.054 | 2.98 ± 0.051 | 2.99 ± 0.041 | 3 ± 0.046 |
| NGSEKVLIAQERSAGNI [RPB2] | 3.1 ± 0.17 | 3.44 ± 0.21 | 3.12 ± 0.12 | 3.06 ± 0.061 |
| AKEVYKIHQQLLFKARL [GAL11] |  | 3.18 ± 0.18 |  | 2.84 ± 0.25 |
| ITLIDSASLHLNYGVYL [RET1] | 2.4 ± 0.076 | 2.27 ± 0.081 | 2.83 ± 0.097 | 2.4 ± 0.063 |
| DGGLEEETDEVSSESSD [SIR3] | 3.3 ± 0.099 | 3.3 ± 0.11 | 3.2 ± 0.089 | 3.24 ± 0.086 |
| FVCLSCSHIFTSDQKNK [RPB9] | 2.43 ± 0.082 | 2.28 ± 0.093 | 2.04 ± 0.11 | 2.55 ± 0.066 |
| DKITLHDEKTLAPSKHQ [SIR4] |  | 2.68 ± 0.16 | 2.44 ± 0.2 | 2.92 ± 0.19 |
| GLRNQNMVRNNNNNTID [GRR1] | 2.75 ± 0.063 | 2.86 ± 0.071 | 2.83 ± 0.057 | 2.96 ± 0.038 |
